These results are taken from article PMC4816394.

Assay [1] concerns the target human triosephosphate isomerase K13M, catalytically inactive (hTPI^Δcat) (human). Put plainly: crystal structure; sitting drops, 28-34% PEG2000 MME, 50 mM KBr; space group P212121, a dimer in the asymmetric unit; 1.7 Å.
For assay [2], the target named is human triosephosphate isomerase M82T (hTPI^M82T) (human). The assay can be described thus: SEC; purified TPI diluted to 15 uM in mobile phase, 100 ul injected, elution monitored at 280 nm; peak areas integrated for the relative monomer and dimer populations; dimer to monomers. For orientation: SEC sorts molecules by how far they enter the pores of the column.

Usually stoichiometry N stands for the number of molecules, sites or subunits per partner or assembly.

In turn, “human triosephosphate isomerase K13M, catalytically inactive (hTPI^Δcat) (enzyme)” came in with a stoichiometry N in assay [1] of 2.
Turning to “human triosephosphate isomerase M82T (hTPI^M82T) (enzyme)”, the percent dimer (dimer:monomer ratio of peak areas) in assay [2] was determined as 5%.
